Reference: article PMC8229911

Target: Lrp transcriptional regulator from Haloferax mediterranei (HFX_RS01210) (Haloferax mediterranei)
Assay: SEC; Superose6 Increase 10/300 GL, 50 mM Tris-HCl pH 8.0, 150 mM NaCl; molecular mass estimated against standard proteins of 6.5 to 660 kDa in the same buffer

- stoichiometry N: 4
Substance: Lrp transcriptional regulator from Haloferax mediterranei (HFX_RS01210) (natural protein)
